Source: article PMC5291256 (Nucleic Acids Research, 2016)

Molecular target: T1, SFR1^dN202 mutant protein (mouse, UniProt Q8BP27 203-319)
T1 sequence (looked up): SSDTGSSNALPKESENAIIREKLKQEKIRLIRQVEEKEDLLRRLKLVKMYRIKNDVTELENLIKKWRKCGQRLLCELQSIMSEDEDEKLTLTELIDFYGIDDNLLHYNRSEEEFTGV
Assay: AUC

- stoichiometry N: 1
B1: mouse SWI5 (natural protein, UniProt Q8K3D3 1-89, looked up)
chain: MIDENNDVSEEALSSDIKKLKEKHDMLDKEISQLIAEGYRVIELEKHISLLHEYNDIKDVSQMLLGKLAVTRGVTTKELYPDFDLNLND
